Data reported in paper doi:10.1101/2020.02.02.931204, “Fast Transport of RNA Granules by Direct Interactions with KIF5A/KLC1 Motors Prevents Axon Degeneration” (bioRxiv, 2020).

Target: T1, KLC1 (TPR1-6) fragment, human KNS2 residues 205-501 (human, UniProt Q07866 205-501)
T1 construct: KLC1 (KNS2), human, residues 205-501 (TPR1-6), in the pET28MHL vector; No removal of the tag is described; also called purified human KLC1; source: E. coli BL21 (DE3), purified (Ni-NTA, Superdex-200 gel filtration)
T1 sequence (Q07866 205-501): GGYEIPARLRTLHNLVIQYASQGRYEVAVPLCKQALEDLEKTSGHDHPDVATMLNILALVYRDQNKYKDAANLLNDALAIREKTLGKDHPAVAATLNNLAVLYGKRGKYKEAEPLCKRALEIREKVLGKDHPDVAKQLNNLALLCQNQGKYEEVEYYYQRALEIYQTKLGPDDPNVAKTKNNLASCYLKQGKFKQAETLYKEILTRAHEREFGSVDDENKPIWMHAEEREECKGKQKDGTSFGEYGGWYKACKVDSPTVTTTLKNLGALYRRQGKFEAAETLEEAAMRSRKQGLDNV
Assay: ITC; KLC1 (TPR1-6) at 20μM in the cell, SFPQ peptide at 200μM in the syringe, 30 injections of 4μL; 20mM HEPES pH 7.5, 150mM NaCl, 0.5mM TCEP, 2% DMSO, 25°C; single site model
Conditions: both partners purified

Kd: 3.8 ± 2.3 µM
stoichiometry N: 1
B1: SFPQ WT peptide spanning the Y-acidic motif (peptide)
peptide: ESEMEDAYHEHQANLLR
notes: SFPQ, human, stretch of the coiled coil domain with the Y-acidic motif; the underlined Y is Y527; also called long SFPQ peptide; WT SFPQ; source: synthetic peptide (KE BioChem)
